In US20250369024A1, “Acyloin Condensation Reactions, Enzymes, and Products Thereof” (Mojia Biotech Pte. Ltd., priority 2023, published 2025):

Experiments:
Assay type in all cases: cell-based, E. coli
Isovaleraldehyde = assay: HACS screening, isovaleraldehyde-C1 condensation (resting cells), leucic acid; conditions: 20 mM isovaleraldehyde and 20 mM formate, 3 hours
From the text: (§1) To implement the C1 elongation pathway for leucic acid production in vivo, we engineered vectors to independently control expression of various HACS candidates and the acyl-CoA transferase from Clostridium aminobutyricum (CaAbfT), with HACS under control of the IPTG-inducible T7 promoter in pCDFDuet-1 and CaAbfT under control of a cumate-inducible T5 promoter in pETDuet-1. As a host for these vectors, we used an engineered strain of E. coli based on MG1655(DE3) with knockouts for formaldehyde (ΔfrmA) and formate (ΔfdhF ΔfdnG ΔfdoG) oxidation as well as for glycolate utilization (ΔglcD).
(§2) In vivo product synthesis was conducted using M9 minimal media (6.78 g/L Na2HPO4, 3 g/L KH2PO4, 1 g/L NH4Cl, 0.5 g/L NaCl, 2 mM MgSO4, 100 μM CaCl2), and 15 μM thiamine-HCl) unless otherwise stated. Cells were initially grown in 96-deep well plates (USA Scientific, Ocala, FL) containing 0.5 mL of the above media further supplemented with 20 g/L glycerol, 10 g/L tryptone, and 5 g/L yeast extract. […]
(§3) Cells from the above pre-cultures were then centrifuged (4000 rpm, 22° C.), washed with the above minimal media without any carbon source, and resuspended with 1 mL of above minimal media containing indicated amounts of carbon source. […] After incubation at 30° C. for 3 hours, the cells were pelleted by centrifugation and the media was analyzed using HPLC.

Formaldehyde = assay: HACS screening, formaldehyde-formyl-CoA condensation in vivo (resting cells), glycolate; conditions: 2.5 mM formaldehyde and 20 mM formate, 0.5 hours
From the text: as §1, with “glycolate” for “leucic acid”, “pETDuet-1” for “pCDFDuet-1”, “pCDFDuet-1 (FIG. 14C).” for “pETDuet-1.”, “(ΔglcD), which we expected could compete or interfere with the analysis of our pathway (FIG. 14B).” for “(ΔglcD).”
In vivo product synthesis was conducted using M9 minimal media (6.78 g/L Na2HPO4, 3 g/L KH2PO4, 1 g/L NH4Cl, 0.5 g/L NaCl, 2 mM MgSO4, 100 μM CaCl2), and 15 μM thiamine-HCl) unless otherwise stated. […]
as §3, with “for 0.5” for “for 3”, “media” for “media was”, “analyzed (FIG. 14A).” for “analyzed using HPLC.”

Succinic semialdehyde = assay: HACS screening, succinic semialdehyde-C1 condensation (resting cells), 2-hydroxyglutaric acid; conditions: 20 mM succinic semialdehyde and 20 mM formate, 3 hours
From the text: as §1, with “2-hydroxyglutaric” for “leucic”
as §2, §3

Glycolaldehyde = assay: HACS screening, glycolaldehyde-C1 condensation (resting cells), glyceric acid; conditions: 20 mM glycolaldehyde and 20 mM formate, 3 hour
From the text: as §1, with “glyceric” for “leucic”
as §2
as §3, with “hour,” for “hours,”

B1: RuHACL: Engineered 2-hydroxyphytanoyl-CoA lyase [Rhodospirillales bacterium URHD0017], SEQ ID NO: 1 (protein)
chain: MSEVDGATLIARSLKQQGIDHLFGVVGFPITAIAAAAQKEGVAYLGMRNEQSAAYAAAAYGYLTGRPGAAVVVTGPGVVHGLSGLANAQQNCWPMILIGGASETYRGGMGAFQEERQVLIASPFCKFAHGIESVARIPFYVEMATRNAIYGRPGATYLDMPDDIIRGTCETDKIAQAERVPEAPRSVAPAENVEAALDLLEKAQRPLVLLGKGMAWSRGEDEVRAFIERTQVPFVRSPMGKGVMPDDHPLSASAARTLALQQADVIFLMGARLNWIFHFGLPPRYAKDVKVIQLDIAPEEIGHNKPTEVALVGDGKAIMAQLNKALVNRQWFHPKDTPWRQALTKKAAENVATIKPQVDDDQGPAGYYRALRDVAAWMPKNAILSAEGANTMDIGLTQLASSNARSVLNAGTYGTMGVGLGQAIAAAVSDPSRPVIHLSGDSAIGFSGMEMETLVRYNLPVKIVVLNNGGIGPGMPEIPENPMFNLKPNALIYGARYDKVMEAFGGKGIFVKEPKDIRKALDEAMAFKGPALVNVVLSQGSTRKAQQFAWHS
modifications: Rhodospirillales bacterium URHD0017 engineered 2-hydroxyphytanoyl-CoA lyase
Isovaleraldehyde
  Product flux, substrate Isovaleraldehyde, product Leucic acid: 12.5 μM/OD/h
Formaldehyde
  Product flux, substrate Formaldehyde, product Glycolate: 44.5 μM/OD/h
Succinic semialdehyde
  Product flux, substrate Succinic semialdehyde, product 2-hydroxyglutarate: 15.2 μM/OD/h
Glycolaldehyde
  Product flux, substrate Glycolaldehyde, product Glycerate: 7.2 μM/OD/h
